Measurements from patent US11795460B2, “Compositions and methods for TTR gene editing and treating ATTR amyloidosis” (Intellia Therapeutics, Inc., priority 2017, dated 2023).
Strand notation (5' to 3'): a small letter for the sugar, then the base; units joined by * are phosphorothioate-linked, units joined directly phosphodiester-linked; [ ] holds rarer units or linkages, { } end groups; capitals alone tell only the bases. m = 2'-O-methyl; r = 2'-OH (RNA)

B1: G000485: TTR sgRNA modified sequence, Human, SEQ ID No. 92; guide sequence of CR003336 (nucleic acid)
guide: mC*mC*mU*rCrCrUrCrUrGrCrCrUrUrGrCrUrGrGrArCrGrUrUrUrUrArGrAmGmCmUmAmGmAmAmAmUmAmGmCrArArGrUrUrArArArArUrArArGrGrCrUrArGrUrCrCrGrUrUrArUrCrAmAmCmUmUmGmAmAmAmAmAmGmUmGmGmCmAmCmCmGmAmGmUmCmGmGmUmGmCmU*mU*mU*mU
B2: G000492: TTR sgRNA modified sequence, Human, SEQ ID No. 99; guide sequence of CR003342 (nucleic acid)
guide: mC*mU*mU*rCrUrCrUrArCrArCrCrCrArGrGrGrCrArCrGrUrUrUrUrArGrAmGmCmUmAmGmAmAmAmUmAmGmCrArArGrUrUrArArArArUrArArGrGrCrUrArGrUrCrCrGrUrUrArUrCrAmAmCmUmUmGmAmAmAmAmAmGmUmGmGmCmAmCmCmGmAmGmUmCmGmGmUmGmCmU*mU*mU*mU
B3: G000501: TTR sgRNA modified sequence, Human, SEQ ID No. 108; guide sequence of CR005300 (nucleic acid)
guide: mU*mC*mA*rCrArGrArArArCrArCrUrCrArCrCrGrUrArGrUrUrUrUrArGrAmGmCmUmAmGmAmAmAmUmAmGmCrArArGrUrUrArArArArUrArArGrGrCrUrArGrUrCrCrGrUrUrArUrCrAmAmCmUmUmGmAmAmAmAmAmGmUmGmGmCmAmCmCmGmAmGmUmCmGmGmUmGmCmU*mU*mU*mU
B4: G000567: TTR sgRNA modified sequence, Human, SEQ ID No. 109; guide sequence of CR003352 (nucleic acid)
guide: mG*mA*mA*rArGrGrCrUrGrCrUrGrArUrGrArCrArCrCrGrUrUrUrUrArGrAmGmCmUmAmGmAmAmAmUmAmGmCrArArGrUrUrArArArArUrArArGrGrCrUrArGrUrCrCrGrUrUrArUrCrAmAmCmUmUmGmAmAmAmAmAmGmUmGmGmCmAmCmCmGmAmGmUmCmGmGmUmGmCmU*mU*mU*mU
B5: G000487: TTR sgRNA modified sequence, Human, SEQ ID No. 94; guide sequence of CR003357 (nucleic acid)
guide: mU*mU*mC*rUrUrUrGrGrCrArArCrUrUrArCrCrCrArGrGrUrUrUrUrArGrAmGmCmUmAmGmAmAmAmUmAmGmCrArArGrUrUrArArArArUrArArGrGrCrUrArGrUrCrCrGrUrUrArUrCrAmAmCmUmUmGmAmAmAmAmAmGmUmGmGmCmAmCmCmGmAmGmUmCmGmGmUmGmCmU*mU*mU*mU
B6: G000486: TTR sgRNA modified sequence, Human, SEQ ID No. 93; guide sequence of CR003339 (nucleic acid)
guide: mA*mC*mA*rCrArArArUrArCrCrArGrUrCrCrArGrCrArGrUrUrUrUrArGrAmGmCmUmAmGmAmAmAmUmAmGmCrArArGrUrUrArArArArUrArArGrGrCrUrArGrUrCrCrGrUrUrArUrCrAmAmCmUmUmGmAmAmAmAmAmGmUmGmGmCmAmCmCmGmAmGmUmCmGmGmUmGmCmU*mU*mU*mU
B7: G000491: TTR sgRNA modified sequence, Human, SEQ ID No. 98; guide sequence of CR003338 (nucleic acid)
guide: mA*mU*mA*rCrCrArGrUrCrCrArGrCrArArGrGrCrArGrGrUrUrUrUrArGrAmGmCmUmAmGmAmAmAmUmAmGmCrArArGrUrUrArArArArUrArArGrGrCrUrArGrUrCrCrGrUrUrArUrCrAmAmCmUmUmGmAmAmAmAmAmGmUmGmGmCmAmCmCmGmAmGmUmCmGmGmUmGmCmU*mU*mU*mU
B8: G000496: TTR sgRNA modified sequence, Human, SEQ ID No. 103; guide sequence of CR005304 (nucleic acid)
guide: mG*mG*mC*rCrGrUrGrCrArUrGrUrGrUrUrCrArGrArArGrUrUrUrUrArGrAmGmCmUmAmGmAmAmAmUmAmGmCrArArGrUrUrArArArArUrArArGrGrCrUrArGrUrCrCrGrUrUrArUrCrAmAmCmUmUmGmAmAmAmAmAmGmUmGmGmCmAmCmCmGmAmGmUmCmGmGmUmGmCmU*mU*mU*mU
B9: G000497: TTR sgRNA modified sequence, Human, SEQ ID No. 104; guide sequence of CR003335 (nucleic acid)
guide: mC*mU*mG*rCrUrCrCrUrCrCrUrCrUrGrCrCrUrUrGrCrGrUrUrUrUrArGrAmGmCmUmAmGmAmAmAmUmAmGmCrArArGrUrUrArArArArUrArArGrGrCrUrArGrUrCrCrGrUrUrArUrCrAmAmCmUmUmGmAmAmAmAmAmGmUmGmGmCmAmCmCmGmAmGmUmCmGmGmUmGmCmU*mU*mU*mU
B10: G000495: TTR sgRNA modified sequence, Human, SEQ ID No. 102; guide sequence of CR003343 (nucleic acid)
guide: mC*mA*mG*rArGrGrArCrArCrUrUrGrGrArUrUrCrArCrGrUrUrUrUrArGrAmGmCmUmAmGmAmAmAmUmAmGmCrArArGrUrUrArArArArUrArArGrGrCrUrArGrUrCrCrGrUrUrArUrCrAmAmCmUmUmGmAmAmAmAmAmGmUmGmGmCmAmCmCmGmAmGmUmCmGmGmUmGmCmU*mU*mU*mU
B11: G000498: TTR sgRNA modified sequence, Human, SEQ ID No. 105; guide sequence of CR003359 (nucleic acid)
guide: mA*mG*mU*rGrArGrUrCrUrGrGrArGrArGrCrUrGrCrArGrUrUrUrUrArGrAmGmCmUmAmGmAmAmAmUmAmGmCrArArGrUrUrArArArArUrArArGrGrCrUrArGrUrCrCrGrUrUrArUrCrAmAmCmUmUmGmAmAmAmAmAmGmUmGmGmCmAmCmCmGmAmGmUmCmGmGmUmGmCmU*mU*mU*mU

Key:
TTR [1] = experiment: TTR editing in primary human hepatocytes transfected with Spy Cas9 protein and sgRNAs (Table 12); assay type: cell-based; details: primary human hepatocytes transfected with Spy Cas9 protein (RNP) and sgRNAs
Experimental: (§1) Primary liver hepatocytes. Primary human liver hepatocytes (PHH) and primary cynomolgus liver hepatocytes (PCH) (Gibco) were cultured per the manufacturer's protocol (Invitrogen, protocol 11.28.2012). In brief, the cells were thawed and resuspended in hepatocyte thawing medium with supplements (Gibco, Cat. CM7000) followed by centrifugation at 100 g for 10 minutes for human and 80 g for 4 minutes for cyno. The supernatant was discarded and the pelleted cells resuspended in hepatocyte plating medium plus supplement pack (Invitrogen, Cat. A1217601 and CM3000). Cells were counted and plated on Bio-coat collagen I coated 96-well plates (ThermoFisher, Cat. 877272) at a density of 33,000 cells/well for human or 60,000 cells/well for cyno (or 65,000 cells/well when assaying effects on TTR protein, described further below). Plated cells were allowed to settle and adhere for 6 or 24 hours in a tissue culture incubator at 37° C. and 5% CO2 atmosphere. After incubation cells were checked for monolayer formation and media was replaced with hepatocyte culture medium with serum-free supplement pack (Invitrogen, Cat. A1217601 and CM4000).
(§2) […] formation was performed prior to electroporation or transfection of Spy Cas9 protein loaded with guide RNAs (RNPs) onto cells. For dual guide (dgRNAs), individual crRNA and trRNA was pre-annealed by mixing equivalent amounts of reagent and incubating at 95° C. for 2 min and cooling to room temperature. Single guide (sgRNAs) were boiled at 95° C. for 2 min and cooling to room temperature. The boiled dgRNA or sgRNA was incubated with Spy Cas9 protein in Optimem for 10 minutes at room temperature to form a ribonucleoprotein (RNP) complex.
For RNP lipoplex transfections, cells were transfected with Lipofectamine RNAiMAX (ThermoFisher, Cat. 13778150) per the manufacturer's protocol. Cells were transfected with an RNP containing Spy Cas9 (10 nM), individual guide (10 nM), tracer RNA (10 nM), Lipofectamine RNAiMAX (1.0 μL/well) and OptiMem. RNP formation was performed as described above.
(§3) Transfected cells were harvested post-transfection at 24, 48, or 72 hours. The genomic DNA was extracted from each well of a 96-well plate using 50 μL/well BuccalAmp DNA Extraction solution (Epicentre, Cat. QE09050) per manufacturer's protocol. All DNA samples were subjected to PCR and subsequent NGS analyses, as described herein.
(§4) To quantitatively determine the efficiency of editing at the target location in the genome, sequencing was utilized to identify the presence of insertions and deletions introduced by gene editing.
(§5) Primers were designed around the target site within the gene of interest (e.g. TTR), and the genomic area of interest was amplified.
(§6) Additional PCR was performed per the manufacturer's protocols (Illumina) to add chemistry for sequencing. The amplicons were sequenced on an Illumina MiSeq instrument. The reads were aligned to a reference genome (e.g., the human reference genome (hg38), the cynomologus reference genome (mf5), the rat reference genome (rn6), or the mouse reference genome (mm10)) after eliminating those having low quality scores. The resulting files containing the reads were mapped to the reference genome (BAM files), where reads that overlapped the target region of interest were selected and the number of wild type reads versus the number of reads which contain an insertion, substitution, or deletion was calculated.
(§7) The editing percentage (e.g., the “editing efficiency” or “percent editing” or “indel frequency”) is defined as the total number of sequence reads with insertions/deletions (“indels”) or substitutions over the total number of sequence reads, including wild type.
Guides in modified sgRNA format targeting human and/or cyno TTR were delivered to primary human hepatocytes and primary cyno hepatocytes as described in Example 1. […]

TTR [2] = experiment: TTR editing in primary cyno hepatocytes electroporated with Spy Cas9 protein and sgRNAs (Tables 14, 15); assay type: cell-based, cynomolgus monkey; details: Table 14; primary cyno hepatocytes electroporated with Spy Cas9 protein (RNP) and sgRNAs
Experimental: as §1, §2
For RNP electroporation into primary human and cyno hepatocytes, the cells are thawed and resuspended in Lonza electroporation Primary Cell P3 buffer at a concentration of 2500 cells per μL for human hepatocytes and 3500 cells per μL for cyno hepatocytes. A volume of 20 μL of resuspended cells and 5 μL of RNP are mixed together per guide. 20 μL of the mixture is placed into a Lonza electroporation plate. The cells were electroporated using the Lonza nucleofector with the preset protocol EX-147. Post electroporation, the cells are transferred into a Biocoat plate containing pre-warmed maintenance media and placed in a tissue culture incubator at 37° C. and 5% CO2.
as §3, §4, §5, §6
The editing percentage (e.g., the “editing efficiency” or “percent editing” or “indel frequency”) is defined as the total number of sequence reads with insertions/deletions (“indels”) or substitutions over the total number of sequence reads, including wild type. […]

TTR [3] = experiment: EC50 and maximum editing in primary cyno hepatocytes treated with LNP formulated U-depleted Spy Cas9 mRNA and sgRNAs (Tables 20, 22); assay type: cell-based, cynomolgus monkey; design: key: % of sequence reads with indels or substitutions over total reads; details: Table 20, LNP with U-depleted Spy Cas9 mRNA and human specific sgRNAs, dose response
Experimental: as §1
For LNPs prepared using the cross-flow technique, the LNPs were formed by impinging jet mixing of the lipid in ethanol with two volumes of RNA solutions and one volume of water. The lipid in ethanol is mixed through a mixing cross with the two volumes of RNA solution. A fourth stream of water is mixed with the outlet stream of the cross through an inline tee. (See WO2016010840 FIG. 2.) The LNPs were held for 1 hour at room temperature, and further diluted with water (approximately 1:1 v/v). Diluted LNPs were concentrated using tangential flow filtration on a flat sheet cartridge (Sartorius, 100 kD MWCO) and then buffer exchanged by diafiltration into 50 mM Tris, 45 mM NaCl, 5% (w/v) sucrose, pH 7.5 (TSS). Alternatively, the final buffer exchange into TSS was completed with PD-10 desalting columns (GE). If required, formulations were concentrated by centrifugation with Amicon 100 kDa centrifugal filters (Millipore). The resulting mixture was then filtered using a 0.2 μm sterile filter. The final LNP was stored at 4° C. or −80° C. until further use.
as §4, §5, §6, §7
Lipid nanoparticle formulations of modified sgRNAs targeting human TTR and the cyno matched sgRNA sequences were tested on primary human hepatocytes and primary cyno hepatocytes in a dose response curve. Primary human and cyno hepatocytes were plated as described in Example 1. Both cell lines were incubated at 37° C., 5% CO2 for 24 hours prior to treatment with LNPs. […]

Row | Molecule | Avg % Deletion (TTR [1]) [%] | Avg % Edit (TTR [1]) [%] | Avg % Insert (TTR [1]) [%] | Avg % Deletion (TTR [2]) [%] | Avg % Edit (TTR [2]) [%] | Avg % Insert (TTR [2]) [%] | Max Editing (TTR [3])
1 | B1 | 3.13 | 56.07 | 53.07 | 1.07 | 22.93 | 22.00 | 
2 | B2 | 3.13 | 60.97 | 57.90 |  |  |  | 
3 | B3 | 6.00 | 60.93 | 55.13 |  |  |  | 
4 | B4 |  |  |  |  |  |  | 97.06
5 | B5 | 2.07 | 67.30 | 65.27 |  |  |  | 
6 | B6 | 59.93 | 69.73 | 9.83 | 68.07 | 79.90 | 11.90 | 
7 | B7 | 4.33 | 74.30 | 70.27 | 1.90 | 66.20 | 64.37 | 
8 | B8 | 27.67 | 72.33 | 44.73 |  |  |  | 
9 | B9 | 8.73 | 59.67 | 51.10 |  |  |  | 
10 | B10 | 5.37 | 50.80 | 45.80 |  |  |  | 
11 | B11 | 12.70 | 72.80 | 60.17 | 22.87 | 91.37 | 68.50 | 
